Laboratory results reported in the nanobody polyreactivity screen of Harvey et al. (2022).

Experiment: yeast display, Sf9 membrane polyspecificity reagent, FACS + sequencing; frameworks hold sequencing errors
Summary of the method: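 Genes from sorted yeast were amplified by colony PCR, read by MiSeq 2 × 250 sequencing and filtered on CDR length. These cells carried a synthetic nanobody library in Saccharomyces cerevisiae BJ5465 and were sorted by FACS into low and high (top ~1%) gates on anti-HA and streptavidin fluorescence. Polyreactivity is labelled according to the gate of origin.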

| Sequence | polyreactivity (PSR sort gate) |
| --- | --- |
| QVQLVESGGGLVQAGGSLRLSCAASGSSKLMLWDGIDRRLGKKGSWLPLFVLVVLRNYADSVKGRFTISRDNAKNTVFLHMNSLKPEDTAVYYCAATPIGSGGWGDYWGQGTQVTVSS | low polyreactivity |
| QVQLVESGGGLVQAGGSLRLSCAASGSSVYRYAMGWYRQAPGKERELVAAITWSGGSTYYADSVKGRFTISRDNAKNTVYLQMNSLKPEDSAVYYCAVEPFSNEFYYWGQGTQVTVSS | low polyreactivity |
| QVQLVESGGGLVQAGGSLRLSCAASGSTCFDYAMGWYRQAPGKERELVAAISRSGDTNYADSVKGRFTISRDNAKNTVYLQMNILKPEDTAVYYCAKDWAYRRHWVGFYYWGQGTQVTVSS | low polyreactivity |
| QVQLVESGGGLVQAGGSLRLSCAASGSTCVSNAMGWYRQAPGKERELVAAISSGDNTNYADSVKGRFTISRDNAKNTVYVQMNSLKPEDTAVYYCAARAYRWRSFSTMYYWGQGTQVTVST | high polyreactivity |
| QVQLVESGGGLVQAGGSLRLSCAASGSTFAAKAMGWYRHAPGKERELVAAITSSGGSTYYADSVKGRFTISRDNAKNTVYLQMNSLKPEDTAVYYCNKDNERYVRIYDSWGQGTQVTVAS | low polyreactivity |
| QVQLVESGGGLVQAGGSLRLSCAASGSTFAANAMGWYRQAPGKERELVATISYRGGSTYYADSVKGRFTISRDNAKNTVYLQMNSLKPEDTAVYYCAAKLYYAFYSRYNYWGQGTQVTVSS | high polyreactivity |
| QVQLVESGGGLVQAGGSLRLSCAASGSTFAAYAMGWYRPAPGTERELVAAISASGGSTYYADSVKGRFTISRDNEKNTVYLQMNSLKPEDTAVYYCAARVFRGLGEYYWGQGTQVTVSS | high polyreactivity |
| QVQLVESGGGLVQAGGSLRLSCAASGSTFADYAMGWYRQAPGKERELVAAITSSGGDTYYADSVKGRFTISRDNAKNTVYLQMNSLKPEDTAVYYCAVVDTLYDSKYDYWGQGTQVTVSS | low polyreactivity |
| QVQLVESGGGLVQAGGSLRLSCAASGSTFAEYAMGWYRQAPGKERELVATITSSGGGTYYADSVKGRFTISRDNAKNTVYLQMNSLKPEDTAVYYCGQGTQVTVSS | low polyreactivity |
| QVQLVESGGGLVQAGGSLRLSCAASGSTFAFNAMGWYRPAPGKERELVASISGSGSSTYYADSVKGRFTISRDNAKNTVYLQMNSLKPEDTAVYYCAARVGARVSPPRRHGRFNYWGQGTQVTVSS | high polyreactivity |
| QVQLVESGGGLVQAGGSLRLSCAASGSTFAFNAMGWYRQAPGKERELVAGITRSGGRTYFADSVKGRFTISRDYAKNTVYLQMNSLKPEDTAVYYCAARRSGSKSGLFDYWGQGTQVTVSS | low polyreactivity |
| QVQLVESGGGLVQAGGSLRLSCAASGSTFAFYAMGWYRQAAGKERELVAAITWDGGTTYYADSVKGRFTLSRDNAKNTVYLQMNSLKPEDTAVYYCASDYAWFSIYDNVPSAPGYDYWGQGTQVTVSS | low polyreactivity |
| QVQLVESGGGLVQAGGSLRLSCAASGSTFAGFTMRWYRQAPGKERELVAAITTRGGRTYYADSVKGRFTISRDNAKNTVYLQMNSLKPEDTAVYYCAAVSRYYAELMYYWGQGTQVTVSS | high polyreactivity |
| QVQLVESGGGLVQAGGSLRLSCAASGSTFAGNAMGWYRQAPGKERELVAAISSSGAGTYYADSVKGRFTISRDNAKNTVYLQMNSLKPEVTAVYYCNVGSRALRRRVRSVSFDYWGQGTQVTVSS | low polyreactivity |
| QVQLVESGGGLVQAGGSLRLSCAASGSTFAGNAMGWYRQAPGKERELVAAITSGTGTHYADSVKGRFSISRDNAKNTVYLQMNSLKPEDTAVYYCAAEVWSWAGIWGYEYWGQGTQVTVSS | low polyreactivity |
| QVQLVESGGGLVQAGGSLRLSCAASGSTFAGNGMGWSRQAPGKERELVAGIDVTGGSTYYADSVKGRFTISRDNAKNTVYLQMNSLKPEDTAVYYCNARYVYHSSFAGFDYWGQGTQVTVSS | low polyreactivity |
| QVQLVESGGGLVQAGGSLRLSCAASGSTFAGNGMGWYRQAPGKERELVAGIDVTGGSTYYADSVKGRFTISRDNAKNTVYLQMNRLKPEDTAVYYCNARYVYHSSFAGFDYWGQGTQVTVSS | low polyreactivity |
